Experimental data published in patent US20130189747A1, “Compositions Comprising A Polypeptide Having Cellulolytic Enhancing Activity And A Sulfur-Containing Compound And Uses Thereof” (priority 2010, published 2013).
Entries after “also recorded” stand apart in the source; their conditions may differ.

Legend:
Assay type in all cases: biochemical
[1] = test system: Trichoderma reesei cellulase composition; experiment: Hydrolysis of AVICEL® (microcrystalline cellulose) by the Trichoderma reesei cellulase composition with/without GH61 polypeptide and sulfur-containing compound
Method: (§1) The effect of various sulfur-containing compounds on the cellulolytic enhancing activity of GH61 polypeptides was evaluated according to the procedures described below.

[2] = test system: Trichoderma reesei cellulase composition; experiment: Hydrolysis of milled unwashed pretreated corn stover (PCS) by the Trichoderma reesei cellulase composition with/without GH61 polypeptide and sulfur-containing compound; conditions: for Enhancement of hydrolysis of milled unwashed PCS by the GH61 polypeptide: no sulfur-containing compound
Method: as §1

[3] = test system: Trichoderma reesei cellulase composition; experiment: Hydrolysis of milled washed pretreated corn stover (PCS) by the Trichoderma reesei cellulase composition with/without GH61 polypeptide and sulfur-containing compound; conditions: for Enhancement of hydrolysis of milled washed PCS by the GH61 polypeptide: no sulfur-containing compound; for GH61 effect (Equation 4): in the absence of L-cysteine (Example 4); for Percent conversion of milled washed PCS: no L-cysteine
Method: as §1

B1: T. aurantiacus GH61A polypeptide: GH61A polypeptide having cellulolytic enhancing activity (SEQ ID NO: 14), recombinantly prepared in Aspergillus oryzae JaL250 (protein, listed as Thermoascus aurantiacus)
chain: MSFSKIIATAGVLASASLVAGHGFVQNIVIDGKYYGGYLVNQYPYMSNPPEVIAWSTTATDLGFVDGTGYQTPDIICHRGAKPGALTAPVSPGGTVELQWTPWPDSHHGPVINYLAPCNGDCSTVDKTQLEFFKIAESGLINDDNPPGIWASDNLIAANNSWTVTIPTTIAPGNYVLRHEIIALHSAQNQDGAQNYPQCINLQVTGGGSDNPAGTLGTALYHDTDPGILINIYQKLSSYIIPGPPLYTG
With B1 the “GH61 effect (Equation 4)” value ([1]; AVICEL®, day 1, in the absence of L-cysteine, all GH61 concentrations tested (5.6, 14, 28 mg per liter), FIG. 3B) was 1, the “GH61 polypeptide concentration at which the GH61 effect was maximal” value ([1]; AVICEL®, day 1, intermediate L-cysteine concentrations, FIG. 3B) was “approximately 15 mg per liter” and the “Effect of the GH61 polypeptide on hydrolysis of AVICEL® (microcrystalline cellulose) by the T. reesei cellulase composition” value ([1]; in the absence of a sulfur-containing compound) was “did not enhance; also recorded: no detectable effect”. For the same molecule, the “Enhancement of hydrolysis of milled unwashed PCS by the GH61 polypeptide” value ([2]; 1 day) was 19%, the “Enhancement of hydrolysis of milled unwashed PCS by the GH61 polypeptide” value ([2]; 3 days) was 21% and the “Enhancement of hydrolysis of milled unwashed PCS by the GH61 polypeptide” value ([2]; 7 days) was 19%. For the same molecule, the “GH61 effect (Equation 4)” value ([2]; milled unwashed PCS, 7 days, in the absence of L-cysteine (Example 4)) was 1.19±0.08, the “Enhancement of hydrolysis of milled washed PCS by the GH61 polypeptide” value ([3]; 1 day) was 14% and the “Enhancement of hydrolysis of milled washed PCS by the GH61 polypeptide” value ([3]; 3 days) was 31%. The “Enhancement of hydrolysis of milled washed PCS by the GH61 polypeptide” value ([3]; 7 days) was 31%, the “GH61 effect (Equation 4)” value ([3]; PCS, 3 days) was 1.31±0.030 and the “Percent conversion of milled washed PCS” value ([3]; day 1, GH61 polypeptide at 10% (w/w) of the cellulase composition (2 mg per g cellulose)) was 27±0.8%. The “Percent conversion of milled washed PCS” value ([3]; day 1, GH61 polypeptide at 25% (w/w) of the cellulase composition (2 mg per g cellulose)) was 27±0.8%, the “Percent conversion of milled washed PCS” value ([3]; day 1, GH61 polypeptide at 50% (w/w) of the cellulase composition (2 mg per g cellulose)) was 27±0.8% and the “Percent conversion of milled washed PCS” value ([3]; day 3, GH61 polypeptide at 10% (w/w) of the cellulase composition (2 mg per g cellulose)) was 55±3%. For the same molecule, the “Percent conversion of milled washed PCS” value ([3]; day 3, GH61 polypeptide at 25% (w/w) of the cellulase composition (2 mg per g cellulose)) was 57±0.5%, the “Percent conversion of milled washed PCS” value ([3]; day 3, GH61 polypeptide at 50% (w/w) of the cellulase composition (2 mg per g cellulose)) was 59±2% and the “GH61 effect (Equation 4)” value ([3]; milled washed PCS, 7 days) was “approximately 1.31±0.03”.
